Blank lines part the entries; values can stand above or below the substance they belong to.
Experiments:
[1] = target: EcSSB dC (construct lacking the CTP, aa 1-170) (Escherichia coli) (UniProt P0AGE0); experiment: fluorescence polarisation; competitive: dC (2.5 uM tetramer) complexed with 25 nM flCTP, titrated with EcSSB constructs (tetramer concentrations); 25°C; 20 mM Tris–acetate pH 8, 50 mM K-glutamate, 10 mM Mg-acetate; competitive binding scheme
[2] = target: EHE chimera (EcSSB with hSSB1 IDL) (Escherichia coli / human (IDL)) (UniProt P0AGE0); experiment: fluorescence polarization; conditions: 20 mM Tris-acetate pH 8, 50 mM K-glutamate, 10 mM Mg-acetate, 25 C, 10 nM labeled oligo, SSB concentrations as tetramers
[3] = target: EPE chimera (EcSSB with PfSSB IDL) (Escherichia coli / Plasmodium falciparum (IDL)) (UniProt P0AGE0); experiment: fluorescence polarization; conditions: 20 mM Tris-acetate pH 8, 50 mM K-glutamate, 10 mM Mg-acetate, 25 C; 10 nM labeled oligo, SSB concentrations as tetramers
RecQ helicase = RecQ helicase (UniProt P15043); experiment: fluorescence polarisation; competitive: RecQ–flCTP mixture (0.65 uM RecQ, 25 nM flCTP) titrated with EcSSB constructs (tetramer concentrations); 25°C; 20 mM Tris–acetate pH 8, 50 mM K-glutamate, 10 mM Mg-acetate; competitive binding scheme
[4] = target: EcSSB R116D-W136D R116D;W136D (Escherichia coli) (UniProt P0AGE0); experiment: fluorescence polarization; conditions: n = 2; 20 mM Tris-acetate pH 8, 50 mM K-glutamate, 10 mM Mg-acetate, 25 C; 10 nM labeled oligo, SSB concentrations as tetramers
[5] = target: EcSSB W136D W136D (Escherichia coli) (UniProt P0AGE0); experiment: fluorescence polarization; conditions: n = 2; 20 mM Tris-acetate pH 8, 50 mM K-glutamate, 10 mM Mg-acetate, 25 C; 10 nM labeled oligo, SSB concentrations as tetramers
[6] = target: EcSSB WT (Escherichia coli) (UniProt P0AGE0); experiment: fluorescence polarization; conditions: n = 1.9 tetramer per oligo; 20 mM Tris-acetate pH 8, 50 mM K-glutamate, 10 mM Mg-acetate, 25 C; 10 nM labeled oligo, SSB concentrations as tetramers
[7] = target: EcSSB d1G internal_change (Escherichia coli) (UniProt P0AGE0); experiment: fluorescence polarization; conditions: n = 1.9 to 2.3 range; here 2.3; 20 mM Tris-acetate pH 8, 50 mM K-glutamate, 10 mM Mg-acetate, 25 C; 10 nM labeled oligo, SSB concentrations as tetramers
[8] = target: EcSSB d2G internal_change (Escherichia coli) (UniProt P0AGE0); experiment: fluorescence polarization; conditions: n = 2.8; 20 mM Tris-acetate pH 8, 50 mM K-glutamate, 10 mM Mg-acetate, 25 C; 10 nM labeled oligo, SSB concentrations as tetramers

RecQ helicase, sequence (P15043 whole entry): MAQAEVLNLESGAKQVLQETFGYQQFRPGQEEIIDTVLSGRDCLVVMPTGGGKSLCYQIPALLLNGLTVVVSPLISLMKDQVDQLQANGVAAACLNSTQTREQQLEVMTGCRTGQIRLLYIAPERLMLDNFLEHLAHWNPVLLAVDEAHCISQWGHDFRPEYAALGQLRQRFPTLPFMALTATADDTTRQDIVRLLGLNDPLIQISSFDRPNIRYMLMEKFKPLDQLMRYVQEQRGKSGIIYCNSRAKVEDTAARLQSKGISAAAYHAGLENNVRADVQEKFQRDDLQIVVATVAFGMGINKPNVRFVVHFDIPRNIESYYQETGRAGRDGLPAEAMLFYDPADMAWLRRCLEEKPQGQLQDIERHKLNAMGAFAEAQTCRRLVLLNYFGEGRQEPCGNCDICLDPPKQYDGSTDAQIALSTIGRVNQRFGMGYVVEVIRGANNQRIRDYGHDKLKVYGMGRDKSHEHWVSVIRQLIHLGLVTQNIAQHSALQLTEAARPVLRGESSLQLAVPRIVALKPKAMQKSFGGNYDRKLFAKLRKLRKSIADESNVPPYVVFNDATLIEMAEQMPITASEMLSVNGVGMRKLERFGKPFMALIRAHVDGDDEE

Kd [1]: 97 nM
Substance: EcSSB GG construct (entire IDL except the CTP eliminated) (from UniProt P0AGE0 1-113) (natural protein)

Substance: TTTTTTTTTTTTTTTTTTTTTTTTTTTTTTTTTTTTTTTTTTTTTTTTTTTTTTTTTTTTTTTTTTTTTTTTTTTTTTT [dT79]
Kd ([2]; n = 2.3): < 10 nM
Kd [3]: < 10 nM

Substance: EPE chimeric construct (EcSSB OB domain, IDL of Plasmodium falciparum SSB, EcSSB CTP) (from UniProt P0AGE0;Q8I415)
Kd (RecQ helicase): < 10 nM
Kd [1]: 57 nM

Substance: ssDNA36
Kd ([2]; n = 2.1): 96 nM
Kd [3]: 84 nM
Kd [4]: 21 nM
Kd [5]: 16 nM
Kd [6]: 32 nM
Kd [7]: 89 nM
Kd [8]: 46 nM
